Results: US20240400638A1, “COMBINATION OF RELAXIN AND VASOPRESSIN ANALOGUES FOR TREATMENT OF RENAL DISORDERS OR CONDITIONS” (River 2 Renal Corp., priority 2021, published 2024)
Numbered stars: 1 amine (or outer) side, 2 acyl side, 3 side chain; on linkers, the order of the positions; unused ones are H or OH. Square brackets hold non-standard residues; d marks the D form. Side chains are listed from the residue outwards. * marks the point of attachment. TTDS = 4-[3-[2-[2-(3-aminopropoxy)ethoxy]ethoxy]propylamino]-4-oxo-butanoyl; γGlu = O=C(O)[C@H](CCC(=O)[*:2])N[*:1]; Stearoyl = CCCCCCCCCCCCCCCCCC(=O)*; Palmitoyl = CCCCCCCCCCCCCCCC(=O)*; αMeK = C[C@](N)(CCCCN)C(=O)O; hLys = NCCCCC[C@H](N)C(=O)O; AEEA = NCCOCCOCC(=O)O; Aib = CC(C)(N)C(=O)O

T1: human RXFP1 (human, UniProt Q9HBX9 1-757)
T1 sequence (looked up): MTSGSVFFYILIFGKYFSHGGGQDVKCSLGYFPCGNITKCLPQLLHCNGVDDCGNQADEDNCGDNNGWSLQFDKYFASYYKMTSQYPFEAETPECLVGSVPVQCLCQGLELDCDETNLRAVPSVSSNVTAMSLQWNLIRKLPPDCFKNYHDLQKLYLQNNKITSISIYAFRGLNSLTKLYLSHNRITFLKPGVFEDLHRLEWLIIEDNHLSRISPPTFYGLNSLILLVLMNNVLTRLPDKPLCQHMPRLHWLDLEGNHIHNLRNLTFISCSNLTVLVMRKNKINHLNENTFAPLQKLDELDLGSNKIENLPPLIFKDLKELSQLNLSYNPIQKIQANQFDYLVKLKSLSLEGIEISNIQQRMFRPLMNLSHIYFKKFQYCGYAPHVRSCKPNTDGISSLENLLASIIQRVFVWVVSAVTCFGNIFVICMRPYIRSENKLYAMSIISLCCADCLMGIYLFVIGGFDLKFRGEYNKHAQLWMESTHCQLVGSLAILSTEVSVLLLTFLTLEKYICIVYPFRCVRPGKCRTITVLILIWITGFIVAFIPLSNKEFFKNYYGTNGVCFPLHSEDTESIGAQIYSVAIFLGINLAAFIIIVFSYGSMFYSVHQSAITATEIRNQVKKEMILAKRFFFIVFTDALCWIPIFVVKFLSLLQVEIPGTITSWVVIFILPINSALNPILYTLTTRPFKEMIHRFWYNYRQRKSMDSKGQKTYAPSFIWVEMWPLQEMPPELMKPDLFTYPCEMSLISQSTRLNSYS

B1: Relaxin peptide analogue of SEQ ID NO: 28 (peptide)
peptide: Ac-LEGRE[hLys]VRAK(Ac)I[Aib][Aib]EGK([TTDS-TTDS-TTDS-γGlu-γGlu-γGlu-Palmitoyl])STFS[αMeK]RAK(Ac)-NH2
B2: Relaxin peptide analogue of SEQ ID NO: 34 (peptide)
peptide: Ac-LEGREKVRAK(Ac)I[Aib][Aib]EGK([TTDS-TTDS-γGlu-γGlu-γGlu-Stearoyl])STFS[αMeK]RAK(Ac)-NH2
B3: Relaxin peptide analogue of SEQ ID NO: 47 (peptide)
peptide: Ac-LEGREKVRAKI[Aib][Aib]EGK([TTDS-TTDS-TTDS-γGlu-γGlu-γGlu-Palmitoyl])STFS[αMeK]RAK(Ac)-NH2
B4: Relaxin peptide analogue of SEQ ID NO: 32 (peptide)
peptide: LEGREKVRAKIXXEGKSTFSKRAK
modifications: Ac-L-E-G-R-E-K-V-R-A-K(Ac)-I-Aib-Aib-E-G-K(PEG2DGA-PEG2DGA-PEG2DGA-gE-gE-gE-Stea)-S-T-F-S-Mly-R-A-K(Ac)-NH2
B5: Relaxin peptide analogue of SEQ ID NO: 45 (peptide)
peptide: Ac-LEGREKVRAK(Ac)I[Aib][Aib]EGK([AEEA-AEEA-AEEA-AEEA-AEEA-γGlu-γGlu-γGlu-Palmitoyl])STFS[αMeK]RAK(Ac)-NH2
SMILES: CCCCCCCCCCCCCCCC(=O)N[C@@H](CCC(=O)N[C@@H](CCC(=O)N[C@@H](CCC(=O)NCCOCCOCC(=O)NCCOCCOCC(=O)NCCOCCOCC(=O)NCCOCCOCC(=O)NCCOCCOCC(=O)NCCCC[C@H](NC(=O)CNC(=O)[C@H](CCC(=O)O)NC(=O)C(C)(C)NC(=O)C(C)(C)NC(=O)[C@@H](NC(=O)[C@H](CCCCNC(C)=O)NC(=O)[C@H](C)NC(=O)[C@H](CCCNC(=N)N)NC(=O)[C@@H](NC(=O)[C@H](CCCCN)NC(=O)[C@H](CCC(=O)O)NC(=O)[C@H](CCCNC(=N)N)NC(=O)CNC(=O)[C@H](CCC(=O)O)NC(=O)[C@H](CC(C)C)NC(C)=O)C(C)C)[C@@H](C)CC)C(=O)N[C@@H](CO)C(=O)N[C@H](C(=O)N[C@@H](Cc1ccccc1)C(=O)N[C@@H](CO)C(=O)N[C@@](C)(CCCCN)C(=O)N[C@@H](CCCNC(=N)N)C(=O)N[C@@H](C)C(=O)N[C@@H](CCCCNC(C)=O)C(N)=O)[C@@H](C)O)C(=O)O)C(=O)O)C(=O)O
B6: Relaxin peptide analogue of SEQ ID NO: 36 (peptide)
peptide: Ac-LEGREKVRAK(Ac)I[Aib][Aib]EGK([TTDS-TTDS-TTDS-γGlu-γGlu-γGlu-Palmitoyl])STFS[dK]RAK(Ac)-NH2
B7: Relaxin peptide analogue of SEQ ID NO: 25 (peptide)
peptide: Ac-LEGREQVRAK(Ac)I[Aib][Aib]EGK([TTDS-TTDS-TTDS-γGlu-γGlu-γGlu-Palmitoyl])STFS[αMeK]RAK(Ac)-NH2
B8: Relaxin peptide analogue of SEQ ID NO: 26 (peptide)
peptide: Ac-LEGREKVRAK(Ac)I[Aib][Aib]EGK([AEEA-AEEA-AEEA-AEEA-γGlu-γGlu-γGlu-Stearoyl])STFS[αMeK]RAK(Ac)-NH2
SMILES: CCCCCCCCCCCCCCCCCC(=O)N[C@@H](CCC(=O)N[C@@H](CCC(=O)N[C@@H](CCC(=O)NCCOCCOCC(=O)NCCOCCOCC(=O)NCCOCCOCC(=O)NCCOCCOCC(=O)NCCCC[C@H](NC(=O)CNC(=O)[C@H](CCC(=O)O)NC(=O)C(C)(C)NC(=O)C(C)(C)NC(=O)[C@@H](NC(=O)[C@H](CCCCNC(C)=O)NC(=O)[C@H](C)NC(=O)[C@H](CCCNC(=N)N)NC(=O)[C@@H](NC(=O)[C@H](CCCCN)NC(=O)[C@H](CCC(=O)O)NC(=O)[C@H](CCCNC(=N)N)NC(=O)CNC(=O)[C@H](CCC(=O)O)NC(=O)[C@H](CC(C)C)NC(C)=O)C(C)C)[C@@H](C)CC)C(=O)N[C@@H](CO)C(=O)N[C@H](C(=O)N[C@@H](Cc1ccccc1)C(=O)N[C@@H](CO)C(=O)N[C@@](C)(CCCCN)C(=O)N[C@@H](CCCNC(=N)N)C(=O)N[C@@H](C)C(=O)N[C@@H](CCCCNC(C)=O)C(N)=O)[C@@H](C)O)C(=O)O)C(=O)O)C(=O)O
B9: Relaxin peptide analogue of SEQ ID NO: 39 (peptide)
peptide: Ac-LEGREFVRAK(Ac)I[Aib][Aib]EGK([TTDS-TTDS-TTDS-γGlu-γGlu-γGlu-Palmitoyl])STWS[Aib]RRK(Ac)-NH2
B10: Relaxin peptide analogue of SEQ ID NO: 48 (peptide)
peptide: Ac-LEGREKVRAQI[Aib][Aib]EGK([TTDS-TTDS-TTDS-γGlu-γGlu-γGlu-Palmitoyl])STFS[αMeK]RAK(Ac)-NH2
B11: Relaxin peptide analogue of SEQ ID NO: 49 (peptide)
peptide: Ac-LEGREKVRAK(Ac)I[Aib][Aib]EGK([TTDS-TTDS-TTDS-γGlu-γGlu-γGlu-Palmitoyl])STFS[αMeK]RAK-NH2
B12: Relaxin peptide analogue of SEQ ID NO: 30 (peptide)
peptide: Ac-LEGREKVRAK(Ac)I[Aib][Aib]EGK([TTDS-TTDS-TTDS-γGlu-γGlu-γGlu-Stearoyl])STWS[αMeK]RAK(Ac)-NH2
B13: Relaxin peptide analogue of SEQ ID NO: 31 (peptide)
peptide: Ac-LEGRERVRAK(Ac)I[Aib][Aib]EGK([TTDS-TTDS-TTDS-γGlu-γGlu-γGlu-Palmitoyl])STWS[Aib]RRK(Ac)-NH2
B14: Relaxin peptide analogue of SEQ ID NO: 29 (peptide)
peptide: Ac-LEGREKVR[Aib]K(Ac)I[Aib][Aib]EGK([TTDS-TTDS-TTDS-γGlu-γGlu-γGlu-Palmitoyl])STFS[αMeK]RAK(Ac)-NH2
B15: Relaxin peptide analogue of SEQ ID NO: 44 (peptide)
peptide: Ac-LEGREKVRAK(Ac)I[Aib][Aib]EGK([TTDS-TTDS-TTDS-γGlu-γGlu-γGlu-Palmitoyl])STW[dS]KRAK(Ac)-NH2
B16: Relaxin peptide analogue of SEQ ID NO: 3 (peptide)
peptide: Ac-LEGREKVRAK(Ac)I[Aib][Aib]EGK([TTDS-TTDS-TTDS-γGlu-γGlu-γGlu-Palmitoyl])STFS[αMeK]RAK(Ac)-NH2
B17: Relaxin peptide analogue of SEQ ID NO: 37 (peptide)
peptide: Ac-LEGRELVRAK(Ac)I[Aib][Aib]EGK([TTDS-TTDS-TTDS-γGlu-γGlu-γGlu-Palmitoyl])STWS[Aib]RRK(Ac)-NH2
B18: Relaxin peptide analogue of SEQ ID NO: 35 (peptide)
peptide: Ac-LEGREKVRAK(Ac)I[Aib][Aib]EGK([TTDS-TTDS-TTDS-γGlu-γGlu-γGlu-Palmitoyl])STW[Aib]KRAK(Ac)-NH2
B19: Relaxin peptide analogue of SEQ ID NO: 4 (peptide)
peptide: Ac-LEGREKVRAK(Ac)I[Aib][Aib]EGK([TTDS-TTDS-γGlu-γGlu-γGlu-Palmitoyl])STWS[Aib]RKK(Ac)-NH2
B20: Relaxin peptide analogue of SEQ ID NO: 27 (peptide)
peptide: Ac-LEGRERVRAK(Ac)I[Aib][Aib]EGK([TTDS-TTDS-TTDS-γGlu-γGlu-γGlu-Palmitoyl])STFS[αMeK]RAK(Ac)-NH2
B21: Relaxin peptide analogue of SEQ ID NO: 42 (peptide)
peptide: Ac-LEGREKVRAK(Ac)I[Aib][Aib]EGK([AEEA-AEEA-AEEA-AEEA-γGlu-γGlu-γGlu-Palmitoyl])STWS[αMeK]RAK(Ac)-NH2
SMILES: CCCCCCCCCCCCCCCC(=O)N[C@@H](CCC(=O)N[C@@H](CCC(=O)N[C@@H](CCC(=O)NCCOCCOCC(=O)NCCOCCOCC(=O)NCCOCCOCC(=O)NCCOCCOCC(=O)NCCCC[C@H](NC(=O)CNC(=O)[C@H](CCC(=O)O)NC(=O)C(C)(C)NC(=O)C(C)(C)NC(=O)[C@@H](NC(=O)[C@H](CCCCNC(C)=O)NC(=O)[C@H](C)NC(=O)[C@H](CCCNC(=N)N)NC(=O)[C@@H](NC(=O)[C@H](CCCCN)NC(=O)[C@H](CCC(=O)O)NC(=O)[C@H](CCCNC(=N)N)NC(=O)CNC(=O)[C@H](CCC(=O)O)NC(=O)[C@H](CC(C)C)NC(C)=O)C(C)C)[C@@H](C)CC)C(=O)N[C@@H](CO)C(=O)N[C@H](C(=O)N[C@@H](Cc1c[nH]c2ccccc12)C(=O)N[C@@H](CO)C(=O)N[C@@](C)(CCCCN)C(=O)N[C@@H](CCCNC(=N)N)C(=O)N[C@@H](C)C(=O)N[C@@H](CCCCNC(C)=O)C(N)=O)[C@@H](C)O)C(=O)O)C(=O)O)C(=O)O

What follows are binders tested against T1, human RXFP1 (assay: cell-based or functional assay).

EC50 (nM), OVCAR 5 cells (cAMP) | EMax, OVCAR 5 cells (cAMP) | Binder
0.62 nM | 88% | B1
0.14 nM | 90% | B2
0.64 nM | 95% | B3
0.1 nM | 97% | B4
0.45 nM | 96% | B5
3.6 nM | 93% | B6
28.7 nM | 100% | B7
0.43 nM | 96% | B8
8.7 nM | 93% | B9
0.45 nM | 96% | B10
0.19 nM | 97% | B11
0.21 nM | 89% | B12
0.19 nM | 94% | B13
1.6 nM | 88% | B14
2.2 nM | 97% | B15
0.34 nM | 97% | B16
5.6 nM | 98% | B17
2.33 nM | 91% | B18
1.5 nM | 89% | B19
1.8 nM | 98% | B20
1.5 nM | 84% | B21
